Source: publication PMC9241661

Target: endogenous PTEN-induced kinase 1 (PINK1) (human (endogenous in Huh7)) (UniProt Q9BXM7)
Assay: proximity ligation

Chain of UniProt Q9BXM7 (Q9BXM7 78-581): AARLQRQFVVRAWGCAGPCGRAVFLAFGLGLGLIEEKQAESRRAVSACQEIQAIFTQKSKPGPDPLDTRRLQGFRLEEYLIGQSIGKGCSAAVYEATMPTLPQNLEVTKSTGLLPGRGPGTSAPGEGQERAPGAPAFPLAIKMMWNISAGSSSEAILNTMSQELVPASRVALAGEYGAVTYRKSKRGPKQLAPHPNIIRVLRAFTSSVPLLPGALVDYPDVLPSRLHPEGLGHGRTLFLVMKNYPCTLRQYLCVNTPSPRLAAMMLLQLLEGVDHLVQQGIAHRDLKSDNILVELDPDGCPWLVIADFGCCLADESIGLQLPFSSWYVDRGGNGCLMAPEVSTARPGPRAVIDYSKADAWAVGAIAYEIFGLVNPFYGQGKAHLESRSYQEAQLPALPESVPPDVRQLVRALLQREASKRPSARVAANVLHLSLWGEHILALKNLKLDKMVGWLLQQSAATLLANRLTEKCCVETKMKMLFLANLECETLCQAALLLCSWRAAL

**Q.** For “JEV-NS4A made in JEV-infected Huh7 cells (from UniProt P27395 2124-2249) (natural protein)”, which fluorescent dots per cell (PLA) (fluorescent dots per cell) is on record?
**A.** 20
